For assay [1], the target named is histone H1 coupled to the SPR sensor chip (UniProt P02253). Kind of assay: SPR.
The target in assay [2] is histone H3/H4 tetramer coupled to the SPR sensor chip (UniProt P84229). Kind of assay: SPR.

This passage reports Kd, koff and kon results from article PMC2566879.

Chain of UniProt P02253 (P02253 whole entry): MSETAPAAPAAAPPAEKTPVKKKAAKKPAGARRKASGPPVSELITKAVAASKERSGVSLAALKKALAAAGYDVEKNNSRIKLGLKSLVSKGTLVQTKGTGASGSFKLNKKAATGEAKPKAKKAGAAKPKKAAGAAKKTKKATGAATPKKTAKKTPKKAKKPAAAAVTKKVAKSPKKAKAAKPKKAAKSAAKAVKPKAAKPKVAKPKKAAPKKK

In assay [1], “recombinant human somatic NASP (nuclear autoantigenic sperm protein), NH2-terminal 6His tag (from UniProt P49321-2 1-449) (natural protein)” registered a Kd of 13.8 nM, a koff of 0.000198 s⁻¹ and an on-rate constant (kon) of 14400 M⁻¹ s⁻¹. In assay [2], the equilibrium dissociation constant (Kd) was 237 nM, the koff was 0.000691 s⁻¹ and the kon is 2920 M⁻¹ s⁻¹.
